Reference: paper PMC4267640

Target: DNA polymerase alpha catalytic core (p180 core) (human, UniProt P09884 335-1257)
Experiment: X-ray crystallography

Chain of DNA polymerase alpha catalytic core (p180 core) (P09884 335-1257): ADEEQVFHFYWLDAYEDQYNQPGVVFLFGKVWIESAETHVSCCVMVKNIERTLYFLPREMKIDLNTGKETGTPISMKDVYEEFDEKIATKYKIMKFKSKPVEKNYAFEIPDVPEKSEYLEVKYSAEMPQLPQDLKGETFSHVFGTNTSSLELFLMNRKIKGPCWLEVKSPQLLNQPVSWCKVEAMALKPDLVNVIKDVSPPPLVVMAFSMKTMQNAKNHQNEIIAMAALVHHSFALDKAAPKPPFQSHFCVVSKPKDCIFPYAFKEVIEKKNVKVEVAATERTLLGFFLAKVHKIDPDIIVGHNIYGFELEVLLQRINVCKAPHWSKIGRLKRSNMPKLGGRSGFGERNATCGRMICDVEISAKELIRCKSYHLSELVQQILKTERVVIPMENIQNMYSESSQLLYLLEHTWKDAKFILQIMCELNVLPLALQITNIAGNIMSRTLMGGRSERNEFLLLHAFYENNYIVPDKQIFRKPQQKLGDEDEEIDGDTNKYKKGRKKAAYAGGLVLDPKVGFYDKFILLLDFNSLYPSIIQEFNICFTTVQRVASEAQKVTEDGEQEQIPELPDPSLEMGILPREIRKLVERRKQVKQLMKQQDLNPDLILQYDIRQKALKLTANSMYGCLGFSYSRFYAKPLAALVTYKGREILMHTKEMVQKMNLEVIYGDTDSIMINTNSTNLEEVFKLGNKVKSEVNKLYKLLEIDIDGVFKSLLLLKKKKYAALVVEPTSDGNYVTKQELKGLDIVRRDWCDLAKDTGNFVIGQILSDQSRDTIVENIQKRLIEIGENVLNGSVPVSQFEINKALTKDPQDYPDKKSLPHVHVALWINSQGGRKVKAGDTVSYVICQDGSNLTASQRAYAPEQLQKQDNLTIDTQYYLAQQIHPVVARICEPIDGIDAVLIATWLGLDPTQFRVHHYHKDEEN

B1: RNA-primed DNA template (DNA:RNA)
DNA: ATTACTATAGGCGCTCCAGGC
RNA: GCCUGGAGCGC
modifications: primer strand is RNA with a 3'-terminal dideoxycytidine (ddC)
binding result: binds
